From paper PMC3529917 (2012)

Target: complement C1q (Homo sapiens, UniProt P02745, C1q succinimidyl alkyne-labeled, Fz8 CRD IgG/Fc fusion)
Assay: pull-down with ELISA quantification, Scatchard

- Kd: 2.8 nM
B1: Frizzled-8 (Fz8/Fc) CRD (protein)
chain: AKELACQEITVPLCKGIGYNYTYMPNQFNHDTQDEAGLEVHQFWPLVEIQCSPDLKFFLCSMYTPICLEDYKKPLPPCRSVCERAKAGCAPLMRQYGFAWPDRMRCDRLPEQGNPDTLCMDY
